Measurements as given in patent US20120065146A1 (published 2012).
One block for each binder: values may come before it. Starred links: 1 amine or outer side, 2 acyl side, 3 side chain; linkers in the order of their positions; H or OH if unused. Non-standard residues stand in square brackets, D forms with d. No end group written: not given here. F2Pmab = 2-amino-4,4-difluoro-3-methyl-4-phosphobutanoic acid, in place of p-Thr, C[C@H]([C@H](N[*:1])C(=O)[*:2])C(F)(F)P(=O)(O)O; Abu(3R-Me,4-PO3H2) = C[C@@H](CP(=O)(O)O)[C@H](N)C(=O)O; pT = C[C@@H](OP(=O)(O)O)[C@H](N)C(=O)O

Key:
Flag-Plk3(K52R) [1] = biological target: T1, Flag-Plk3(K52R) (UniProt Q9H4B4 40-646, K52R); test: assay not given; pull-downs of Examples 3 and 6
T1 construct: A gift construct; K52 may be counted on another entry than the printed human one; not shown: Flag tag

Flag-Plk3(K52R) [2] = biological target: T1, Flag-Plk3(K52R); test: pull-down from mixed HeLa lysates, anti-Flag blot (FIG. 4B)
[3] = biological target: T2, Plk1 (endogenous, in mitotic HeLa cell lysates) (UniProt P53350 2-603); test: pull-down from mitotic HeLa lysate with bead-immobilised peptide (FIG. 4A)
T2 construct: Endogenous full-length protein in total lysate of nocodazole-arrested HeLa cells; also called polo-like kinase 1

HA-EGFP-Plk1 [4] = biological target: T3, HA-EGFP-Plk1 (UniProt P53350 1-603); test: ELISA competition (FIG. 16A)
T3 construct: also called full-length Plk1 (ELISA); not shown: HA tag and EGFP

HA-EGFP-Plk1 [5] = biological target: T3, HA-EGFP-Plk1; test: ELISA competition on immobilised biotinylated p-T78 9-mer (FIG. 16A)
[6] = biological target: T2, Plk1 (endogenous, in mitotic HeLa cell …); test: pull-down from mitotic HeLa lysate with bead-immobilised peptide (FIG. 13A)
Flag-Plk2(K607R, Y626F) = biological target: T4, Flag-Plk2(K607R, Y626F) (UniProt Q9NYY3 1-685); test: pull-down of transfected HeLa lysate with immobilised MQSpTPL (FIG. 15B)
T4 construct: not shown: Flag tag

[7] = biological target: T5, Flag-Plk2(L606F, K607R, 5608T, D609R, K610S, Y626F, H627Q) (UniProt Q9NYY3 1-685); test: as above
T5 construct: 5608T is read as S608T; not shown: Flag tag
T5 sequence (Q9NYY3 whole entry L606F/K607R/S608T/D609R/K610S/Y626F/H627Q): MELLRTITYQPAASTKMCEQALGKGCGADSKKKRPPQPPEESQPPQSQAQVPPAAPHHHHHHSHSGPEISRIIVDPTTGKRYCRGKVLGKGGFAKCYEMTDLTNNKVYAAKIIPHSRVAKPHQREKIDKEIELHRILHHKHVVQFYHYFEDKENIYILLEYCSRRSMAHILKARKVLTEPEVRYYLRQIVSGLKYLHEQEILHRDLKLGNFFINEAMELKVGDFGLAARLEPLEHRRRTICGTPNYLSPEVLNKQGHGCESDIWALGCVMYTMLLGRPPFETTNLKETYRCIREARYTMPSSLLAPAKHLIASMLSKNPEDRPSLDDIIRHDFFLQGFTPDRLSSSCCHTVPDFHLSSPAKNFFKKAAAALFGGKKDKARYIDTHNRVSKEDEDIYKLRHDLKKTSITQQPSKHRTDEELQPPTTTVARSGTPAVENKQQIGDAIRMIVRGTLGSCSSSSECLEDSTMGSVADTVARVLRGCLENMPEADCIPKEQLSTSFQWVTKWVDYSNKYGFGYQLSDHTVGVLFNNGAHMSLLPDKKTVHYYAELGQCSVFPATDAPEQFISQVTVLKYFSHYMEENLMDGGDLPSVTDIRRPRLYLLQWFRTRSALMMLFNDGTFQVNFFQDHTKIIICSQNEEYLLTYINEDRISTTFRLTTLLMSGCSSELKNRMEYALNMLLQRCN

T2 sequence (P53350 2-603 limits assumed): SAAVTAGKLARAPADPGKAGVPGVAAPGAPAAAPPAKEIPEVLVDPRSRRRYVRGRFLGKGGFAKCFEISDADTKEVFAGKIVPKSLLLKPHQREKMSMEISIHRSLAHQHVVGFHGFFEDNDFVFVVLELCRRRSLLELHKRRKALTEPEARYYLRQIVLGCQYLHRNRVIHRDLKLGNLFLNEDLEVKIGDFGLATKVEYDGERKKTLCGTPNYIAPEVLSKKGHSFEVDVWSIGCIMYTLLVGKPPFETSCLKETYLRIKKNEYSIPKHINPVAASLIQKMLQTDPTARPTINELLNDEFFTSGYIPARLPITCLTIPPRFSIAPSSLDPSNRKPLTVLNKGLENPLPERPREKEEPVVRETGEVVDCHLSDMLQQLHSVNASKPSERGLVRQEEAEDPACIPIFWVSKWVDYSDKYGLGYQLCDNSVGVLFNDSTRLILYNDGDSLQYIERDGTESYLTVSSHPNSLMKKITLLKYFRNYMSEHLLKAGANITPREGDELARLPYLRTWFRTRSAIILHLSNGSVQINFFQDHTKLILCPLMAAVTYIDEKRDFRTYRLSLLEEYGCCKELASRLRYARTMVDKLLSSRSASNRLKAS
T1 sequence (Q9H4B4 40-646 K91R): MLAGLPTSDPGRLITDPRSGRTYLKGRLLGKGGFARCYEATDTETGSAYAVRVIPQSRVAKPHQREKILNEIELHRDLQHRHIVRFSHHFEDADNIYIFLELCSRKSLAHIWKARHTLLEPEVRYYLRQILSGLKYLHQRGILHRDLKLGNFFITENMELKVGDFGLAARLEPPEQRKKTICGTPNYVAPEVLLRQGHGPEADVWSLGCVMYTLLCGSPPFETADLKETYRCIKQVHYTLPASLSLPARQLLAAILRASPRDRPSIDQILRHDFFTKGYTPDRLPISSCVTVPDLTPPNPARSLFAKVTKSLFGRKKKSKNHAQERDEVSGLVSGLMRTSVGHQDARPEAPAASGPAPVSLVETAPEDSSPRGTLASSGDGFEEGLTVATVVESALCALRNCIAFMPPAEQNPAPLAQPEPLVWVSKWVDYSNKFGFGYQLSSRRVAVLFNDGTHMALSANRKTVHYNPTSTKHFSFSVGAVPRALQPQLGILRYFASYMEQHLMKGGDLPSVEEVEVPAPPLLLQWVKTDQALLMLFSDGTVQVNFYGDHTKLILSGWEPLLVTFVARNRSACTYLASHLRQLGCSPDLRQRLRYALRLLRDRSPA
T3 sequence (P53350 whole entry): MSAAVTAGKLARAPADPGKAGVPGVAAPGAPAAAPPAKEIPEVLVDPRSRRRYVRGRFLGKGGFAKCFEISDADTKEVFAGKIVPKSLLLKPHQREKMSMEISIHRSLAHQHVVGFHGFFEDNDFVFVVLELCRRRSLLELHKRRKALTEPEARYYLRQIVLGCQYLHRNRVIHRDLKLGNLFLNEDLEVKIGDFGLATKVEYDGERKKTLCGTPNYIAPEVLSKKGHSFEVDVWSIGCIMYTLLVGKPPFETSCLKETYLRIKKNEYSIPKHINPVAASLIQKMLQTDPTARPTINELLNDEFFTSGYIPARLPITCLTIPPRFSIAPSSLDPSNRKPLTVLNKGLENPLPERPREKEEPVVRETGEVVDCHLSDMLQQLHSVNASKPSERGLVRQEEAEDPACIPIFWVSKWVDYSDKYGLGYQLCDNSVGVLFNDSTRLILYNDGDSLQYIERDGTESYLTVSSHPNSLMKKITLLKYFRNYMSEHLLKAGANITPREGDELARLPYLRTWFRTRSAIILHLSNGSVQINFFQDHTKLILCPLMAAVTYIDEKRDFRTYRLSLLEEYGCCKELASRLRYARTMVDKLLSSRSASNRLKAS
T4 sequence (Q9NYY3 whole entry K607R/Y626F): as the sequence (Q9NYY3 whole entry L606F/K607R/S608T/D609R/K610S/Y626F/H627Q) above, with F606L, T608S, R609D, S610K, Q627H counted along it

binding result (Flag-Plk3(K52R) [1]): no binding
B1: PLHSpT (peptide)
peptide: PLHS[pT]
modifications: also: Ac and C-terminal amide in soluble form, N-terminal Cys-(CH2)6 linker in pull-down form
notes: Derived from the Thr78 region of PBIP1; also called Ac-PLHSpT-NH2; C-(CH2)6-PLHSpT

binding result (Flag-Plk3(K52R) [2]): no binding
B2: PLHS-Pmab (peptide)
peptide: PLHS[Abu(3R-Me,4-PO3H2)]
modifications: also: N-acetylated in soluble form, N-terminal Cys-(CH2)6 linker in pull-down form
notes: also called C-(CH2)6-PLHS-Pmab

binding result [3]: no binding
B3: PLHA-Pmab (peptide)
peptide: PLHA[Abu(3R-Me,4-PO3H2)]
modifications: also: N-acetylated in soluble form
notes: also called Pmab(S77A); C-(CH2)6-PLHA-Pmab

binding result (HA-EGFP-Plk1 [4]): binds
B4: PLHS-F2Pmab-A (peptide)
peptide: PLHS[F2Pmab]A
modifications: also: in pull-downs N-terminal Cys-(CH2)6 linker cross-linked to beads
notes: also called C-(CH2)6-PLHS-F2Pmab-A

binding result [6]: no binding
B5: PLHA-F2Pmab-A (peptide)
peptide: PLHA[F2Pmab]A
modifications: also: in pull-downs N-terminal Cys-(CH2)6 linker cross-linked to beads
notes: also called F2Pmab(S77A); C-(CH2)6-PLHA-F2Pmab-A
binding result (HA-EGFP-Plk1 [5]): no binding (tested: 1000-fold higher molar concentrations)

binding result (Flag-Plk2(K607R, Y626F)): no binding
binding result [7]: no binding
B6: MQSpTPL (peptide)
peptide: MQS[pT]PL
modifications: also: in pull-downs N-terminal Cys-(CH2)6 linker cross-linked to beads
notes: also called synthetic optimal peptide
